Source: patent US20090156489A1 (Genentech, published 2009)

Experiments:
[1] = target: chicken Netrin-1 expressed in COS7 cells (chicken, UniProt Q90922 26-606); assay: cell surface binding assay on transfected COS7 cells, fluorescence microscopy
Method: (§1) The resultant fusion proteins were expressed and used in binding assays over a panel of ˜400 putative cell surface transmembrane or GPI-anchored cell surface human proteins that were transiently expressed in COS7 cells. Purified ECD-Fc fusion proteins (0.5 μg/ml) or the crude baculovirus lysates were added to transiently transfected COS7 cells for 1-2 hours at room temperature. After 3 rinses with cold phosphate buffered saline (PBS), the bound protein was cross-linked to the cell surface with 4% paraformaldehyde. The bound Fc fusion protein was detected by biotinylated anti-human IgGFc and R-phycoerythrin-conjugated streptavidin (Jackson Immunoresearch). Cell surface staining was visualized by fluorescent microscopy and images were taken with the Penguin 800CL digital camera system (Pixera).
(§2) Although the NGL-1 and Netrin-G1 interaction appeared to be specific within the context of the screen, the classical Netrins and their known receptors, DCC and Unc5, were not included in the screen. Thus whether NGL-1 also interacts with Netrin-1 and its receptors was determined. Using the same cell surface binding assay, NGL-1, Netrin-G1, or Netrin-1 were expressed in COS7 cells (rows in FIG. 1a-i) and their ability to bind the IgG Fe fusion protein of NGL-1, Netrin-G1, or DCC (columns in FIG. 1a-i) was determined. […]

[2] = target: T1, DCC expressed on COS cells (human, UniProt P43146 26-1447); assay: cell surface binding assay on transfected COS7 cells, fluorescence microscopy (data not shown)
T1 construct: whole, on cells
Method: as §1, §2

T1 sequence (P43146 26-1447): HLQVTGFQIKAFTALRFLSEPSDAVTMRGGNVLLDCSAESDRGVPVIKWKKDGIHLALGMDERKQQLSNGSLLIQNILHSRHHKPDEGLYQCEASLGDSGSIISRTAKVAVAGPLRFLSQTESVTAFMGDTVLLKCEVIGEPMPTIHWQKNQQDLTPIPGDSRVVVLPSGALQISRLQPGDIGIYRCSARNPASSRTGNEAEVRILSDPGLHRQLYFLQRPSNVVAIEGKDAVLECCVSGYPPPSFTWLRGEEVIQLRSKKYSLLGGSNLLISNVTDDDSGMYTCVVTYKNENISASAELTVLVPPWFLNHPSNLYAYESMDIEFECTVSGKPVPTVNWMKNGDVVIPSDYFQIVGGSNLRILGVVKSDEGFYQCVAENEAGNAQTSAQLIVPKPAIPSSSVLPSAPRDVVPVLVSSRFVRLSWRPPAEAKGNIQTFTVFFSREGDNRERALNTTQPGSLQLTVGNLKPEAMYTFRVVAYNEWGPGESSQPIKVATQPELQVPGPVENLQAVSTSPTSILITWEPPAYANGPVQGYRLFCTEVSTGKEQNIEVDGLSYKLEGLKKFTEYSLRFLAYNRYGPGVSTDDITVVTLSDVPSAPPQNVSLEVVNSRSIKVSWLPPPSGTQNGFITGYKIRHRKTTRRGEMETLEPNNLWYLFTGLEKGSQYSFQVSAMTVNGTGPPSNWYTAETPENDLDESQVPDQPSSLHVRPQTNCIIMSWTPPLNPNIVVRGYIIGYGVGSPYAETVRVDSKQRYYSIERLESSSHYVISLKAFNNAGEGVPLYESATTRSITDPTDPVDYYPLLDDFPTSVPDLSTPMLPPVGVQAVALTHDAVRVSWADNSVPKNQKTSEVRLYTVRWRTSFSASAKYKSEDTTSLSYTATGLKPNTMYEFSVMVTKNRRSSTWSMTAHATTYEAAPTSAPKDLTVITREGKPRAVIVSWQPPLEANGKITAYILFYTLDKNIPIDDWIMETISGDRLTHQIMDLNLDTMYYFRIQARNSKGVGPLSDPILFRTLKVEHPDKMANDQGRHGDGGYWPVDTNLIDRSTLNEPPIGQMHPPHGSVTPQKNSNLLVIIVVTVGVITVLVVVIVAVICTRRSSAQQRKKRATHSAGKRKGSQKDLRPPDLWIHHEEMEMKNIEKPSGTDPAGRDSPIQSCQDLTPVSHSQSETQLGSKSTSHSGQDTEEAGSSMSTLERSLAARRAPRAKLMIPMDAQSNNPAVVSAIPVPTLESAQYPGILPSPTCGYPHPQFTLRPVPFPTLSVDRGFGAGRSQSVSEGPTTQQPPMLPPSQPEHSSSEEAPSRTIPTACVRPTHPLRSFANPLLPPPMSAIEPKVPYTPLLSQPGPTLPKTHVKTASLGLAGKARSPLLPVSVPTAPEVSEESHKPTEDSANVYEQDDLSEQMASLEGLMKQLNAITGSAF

B1: human Netrin-G1-Fc (Fc fusion, UniProt Q9Y2I2-1 29-409, looked up)
chain: HYDLCKTQIYTEEGKVWDYMACQPESTDMTKYLKVKLDPPDITCGDPPETFCAMGNPYMCNNECDASTPELAHPPELMFDFEGRHPSTFWQSATWKEYPKPLQVNITLSWSKTIELTDNIVITFESGRPDQMILEKSLDYGRTWQPYQYYATDCLDAFHMDPKSVKDLSQHTVLEIICTEEYSTGYTTNSKIIHFEIKDRFAFFAGPRLRNMASLYGQLDTTKKLRDFFTVTDLRIRLLRPAVGEIFVDELHLARYFYAISDIKVRGRCKCNLHATVCVYDNSKLTCECEHNTTGPDCGKCKKNYQGRPWSPGSYLPIPKGTANTCIPSISSIGTNVCDNELLHCQNGGTCHNNVRCLCPAAYTGILCEKLRCEEAGSCGS
notes: extracellular domain; also called Netrin-G1-Fc fusion protein; not shown: human IgG1 Fc region
binding result [1]: no binding
binding result [2]: no binding
